Test results taken from patent US20080261906.

Key:
[1] = target: other Rabs and Arfs of the panel (27 mammalian Rabs and several different ARFs were tested)
[2] = target: Rab1 GTPase (GTP-loaded, purified)

B1: TBC1D20 with a 6xHIS N-terminal tag (bacterially expressed, pDEST-17) (protein)
chain: MALRSAQGDGPTSGHWDGGAEKADFNAKRKKKVAEIHQALNSDPTDVAALRRMAISEGGLLTDEIRRKVWPKLLNVNANDPPPISGKNLRQMSKDYQQVLLDVRRSLRRFPPGMPEEQREGLQEELIDIILLILERNPQLHYYQGYHDIVVTFLLVVGERLATSLVEKLSTHHLRDFMDPTMDNTKHILNYLMPIIDQVNPELHDFMQSAEVGTIFALSWLITWFGHVLSDFRHVVRLYDFFLACHPLMPIYFAAVIVLYREQEVLDCDCDMASVHHLLSQIPQDLPYETLISRAGDLFVQFPPSELAREAAAQQQAERTAASTFKDFELASAQQRPDMVLRQRFRGLLRPEDRTKDVLTKPRTNRFVKLAVMGLTVALGAAALAVVKSALEWAPKFQLQLFP
- catalytic efficiency relative to the intrinsic rate constant for GTP hydrolysis [1]: Note that only Rab1 displays significant activation by TBC1D20
- catalytic efficiency (kcat/Km) of GAP-accelerated GTP hydrolysis [2]: Activation of Rab1GTP hydrolysis by TBC1D20 has an apparent catalytic efficiency (kcat/Km) of 360 M^-1s^-1

B2: mutant TBC1D20 (R66A, R105A), 6xHIS N-terminal tag, bacterially expressed (protein)
chain: MALRSAQGDGPTSGHWDGGAEKADFNAKRKKKVAEIHQALNSDPTDVAALRRMAISEGGLLTDEIARKVWPKLLNVNANDPPPISGKNLRQMSKDYQQVLLDVRASLRRFPPGMPEEQREGLQEELIDIILLILERNPQLHYYQGYHDIVVTFLLVVGERLATSLVEKLSTHHLRDFMDPTMDNTKHILNYLMPIIDQVNPELHDFMQSAEVGTIFALSWLITWFGHVLSDFRHVVRLYDFFLACHPLMPIYFAAVIVLYREQEVLDCDCDMASVHHLLSQIPQDLPYETLISRAGDLFVQFPPSELAREAAAQQQAERTAASTFKDFELASAQQRPDMVLRQRFRGLLRPEDRTKDVLTKPRTNRFVKLAVMGLTVALGAAALAVVKSALEWAPKFQLQLFP
- kinetics of Rab1 GTP hydrolysis (GAP assay) [2]: the GTPase activating activity of TBC1D20 on Rab1 was abolished when these conserved arginine residues were mutated to alanine
